Assay results taken from publication doi:10.1101/2025.01.11.632520, “A De Novo Design Strategy to Convert FAcD from Dimer to Active Monomer” (bioRxiv, 2025).

Target: the molecule itself
Experiment: native MS; proteins buffer-exchanged into 0.2 M ammonium acetate (pH 7); Q-Exactive Plus Orbitrap, collision voltage 20 V; room temperature; self-association (dimer vs monomer)

B1: Fluoroacetate dehalogenase (FAcD), wild-type (enzyme, UniProt Q6NAM1 1-302, looked up)
chain: MPDLADLFPGFGSEWINTSSGRIFARVGGDGPPLLLLHGFPQTHVMWHRVAPKLAERFKVIVADLPGYGWSDMPESDEQHTPYTKRAMAKQLIEAMEQLGHVHFALAGHDRGARVSYRLALDSPGRLSKLAVLDILPTYEYWQRMNRAYALKIYHWSFLAQPAPLPENLLGGDPDFYVKAKLASWTRAGDLSAFDPRAVEHYRIAFADPMRRHVMCEDYRAGAYADFEHDKIDVEAGNKIPVPMLALWGASGIAQSAATPLDVWRKWASDVQGAPIESGHFLPEEAPDQTAEALVRFFSAAP
notes: Fluoroacetate dehalogenase (FAcD), gene Rpa1163, residues 1-302; His6-SUMO tag cleaved off by ULP1; Homodimer by native MS; also called WT; WT-Di; source: E. coli BL21(DE3), purified (nickel column, SEC); not shown: His6, N-terminal, cleaved; SUMO, N-terminal, cleaved
  stoichiometry N: 2
